Measurements taken from article PMC5716094.
Read-outs that look alike come from different tables or passages of the source.

Experiments:
[1] = biological target: T1, B-domain of TRF2 (human, UniProt Q15554 43-86); test: SAXS
T1 chain: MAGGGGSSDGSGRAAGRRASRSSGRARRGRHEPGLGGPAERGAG

[2] = biological target: T2, ΔBTRF2 (human, UniProt Q15554 87-542, del43-86); test: fluorescence anisotropy
[3] = biological target: T3, TRF2 (human, UniProt Q15554 43-542); test: fluorescence anisotropy
[4] = biological target: T2, ΔBTRF2; test: fluorescence anisotropy; remark: listed apart in the source
[5] = biological target: T3, TRF2; test: fluorescence anisotropy; remark: listed apart in the source

T2 sequence (Q15554 87-542, stated change not applied): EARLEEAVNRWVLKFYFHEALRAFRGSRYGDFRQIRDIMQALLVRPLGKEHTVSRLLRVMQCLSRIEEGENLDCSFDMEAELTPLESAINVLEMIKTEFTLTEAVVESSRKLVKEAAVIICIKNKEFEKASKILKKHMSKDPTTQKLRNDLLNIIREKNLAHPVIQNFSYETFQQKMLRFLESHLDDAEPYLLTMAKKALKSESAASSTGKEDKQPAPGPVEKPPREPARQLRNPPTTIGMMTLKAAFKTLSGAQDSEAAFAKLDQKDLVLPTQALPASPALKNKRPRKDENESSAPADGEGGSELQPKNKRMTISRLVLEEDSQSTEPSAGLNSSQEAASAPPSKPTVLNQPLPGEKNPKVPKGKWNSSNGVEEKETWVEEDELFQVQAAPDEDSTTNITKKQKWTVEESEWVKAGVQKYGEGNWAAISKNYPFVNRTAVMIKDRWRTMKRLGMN

| Binder | binding result [1] | binding result [2] | binding signal [3] | binding signal [4] | binding signal [5] |
| --- | --- | --- | --- | --- | --- |
| R2 duplex (dsDNA) DNA 1: GTTAGGGTTAGGGTTAG DNA 2: CTAACCCTAACCCTAAC | binds | binds | ~2 fold lower Kd than ΔBTRF2 | – | – |
| R5 duplex (dsDNA) DNA 1: GTTAGGGTTAGGGTTAGGGTTAGGGTTAGGGTTAG DNA 2: CTAACCCTAACCCTAACCCTAACCCTAACCCTAAC | – | – | – | ~2 fold higher Kd than TRF2 | ~2 fold lower Kd than ΔBTRF2 |
